The chains are these.
T1: cyno IL-33 N-His (cynomolgus monkey)
T1 chain: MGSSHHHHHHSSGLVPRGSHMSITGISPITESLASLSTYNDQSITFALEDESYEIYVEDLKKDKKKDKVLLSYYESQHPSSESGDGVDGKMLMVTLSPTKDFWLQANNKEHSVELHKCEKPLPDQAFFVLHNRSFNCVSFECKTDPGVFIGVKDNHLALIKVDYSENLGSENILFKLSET

T2: biotinylated cyno IL-33 (cynomolgus monkey, UniProt A0A2K5W3I1 112-269, biotin-labeled with EZ-LINK NHS-PEG4-Biotin)
T2 construct: also called biotin-cyIL-33
T2 sequence: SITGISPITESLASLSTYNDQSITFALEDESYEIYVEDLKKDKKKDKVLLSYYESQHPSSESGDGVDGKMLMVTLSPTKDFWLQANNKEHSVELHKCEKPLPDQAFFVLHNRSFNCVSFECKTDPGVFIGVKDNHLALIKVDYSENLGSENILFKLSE

T3: cyno IL-33 (cell-based blocking assay of Example 2) (cynomolgus monkey, UniProt A0A2K5W3I1 95-269)
T3 sequence: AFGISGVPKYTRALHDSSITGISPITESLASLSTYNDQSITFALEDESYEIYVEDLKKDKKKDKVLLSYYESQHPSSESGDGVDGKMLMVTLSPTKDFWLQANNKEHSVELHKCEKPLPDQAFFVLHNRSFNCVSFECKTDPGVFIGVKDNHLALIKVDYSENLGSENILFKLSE

T4: human IL-33 (cell-based blocking assay of Example 2) (human, UniProt O95760 112-270)
T4 sequence (looked up): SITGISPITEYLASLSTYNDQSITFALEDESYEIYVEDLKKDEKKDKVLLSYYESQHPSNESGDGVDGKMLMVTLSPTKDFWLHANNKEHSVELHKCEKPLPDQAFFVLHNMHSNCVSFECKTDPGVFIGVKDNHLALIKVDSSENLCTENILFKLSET

T5: human IL-33 (Genentech, huIL33.his) (human, UniProt O95760 112-270)
T5 sequence (looked up): T4 sequence (looked up)

B1: H4H9664P (antibody, V domains shown)
VH: QVQLVESGGGVVQPGRSLRLSCAASGFTFSSYGLHWVRQSPGKGLEWVALISYDGSNKYYADSVKGRFTISRDNSKNTLYLQMNSLRPEDTAGYFCAKSLYTTSWYGGFDYWGQGTLVTVSS
VL: DIQMTQSPSSVSASVGDRVTITCRASQGIRSWLAWYQQKPGKAPNLLIYAASSLQSGVPSRFSGSGSGTDFTLTISSLQPEDFATYYCQQANSFPPTFGPGTKVDIK
B2: H4H9676P (antibody, V domains shown)
VH: EVQLVESGGGLVQPGGSLRLSCSASGFTFSSYAMNWVRQAPGKGLEWVTAISGSGGGTYYADSVKGRFTISRDNSKNSLFLQLNSLRAEDTAVYYCAKQTYTSSWYGGFDIWGQGTMVTVSS
VL: B1 VL with I29F, R30S, K39I, N45K, S53R, S63R, P96L, P100G, D105E
B3: H4H9666P (antibody, V domains shown)
VH: QVQLVQSGAEVKKPGASVKVSCKASGYTFTSYGISWVRQAPGQGLEWMGWIRAYNGYTNYAQKFQGRVTMTTDTSTNTAYMELRTLNSDDTAVYYCARDRYSGSFHGNFDYWGQGTLVTVSS
VL: B1 VL with R30F, N45K, L46V, S53N, Q55E, F94L, P96L, P100G, D105E
B4: H4H9667P (antibody, V domains shown)
VH: EVQLVESGGGLVQPGGSLRLSCAASGFTFSTYSMHWVRQAPGKGLEYVSTINNNGDTTYYADSVKGRFTISRDNSKNTLYLQLGSLRPEDMAVYYCARQTYTSSWYGGFDSWGQGTLVTVSS
VL: B1 VL with R30T, N45K, S53N, S76T, F94L, P96F
B5: H4H9672P (antibody, V domains shown)
VH: EVQLVESGGGLVQPGGSLRLSCAASGFTLRSYVMYWVRQGPGKGLEGVSGISGSSGGTYYTDSVKGRFTISRDNSKNTLFLQMNSLRAEDTAVYFCARSVYSTTWYGGFQHWGQGTLVTVSS
VL: DIQMTQSPSSVSVSVGDRVTITCRASQVISSWLAWYQLKPGKAPKLLIYAASSLQSGVPSRFSGSGSGTDFTLTISGLQPEDFAVYYCQQTNSFPLTFGGGTKVEIK
B6: H4H9670P (antibody, V domains shown)
VH: EVQLVESGGGLVQPGGSLRLSCAASGFTLSSYAMSWVRQAPGKGLEWVSAISGSGGSTYYADSVKGRFTISRDNSKNSLYLQLNSLRAEDTAVYYCAKTLYTTSWYGGFQHWGQGTLVTVSS
VL: DIQMTQSPSSVSASIGDRVTITCRASQGISSWLAWYQQKPGKVPKLLIYAASSLQSGFPSRFSGSGSGTDFTLTISSLQPEDFATYYCQQTHSFPWTVGQGTKVEIK
B7: 10H2.36.F10.30V.54D (antibody, V domains shown)
VH: EVQLVESGGGLVQPGGSLRLSCAASGFTFSNYWMNWVRQAPGKGLEWMAEITLKFNDYSTHYAESVKGRFTISRDNSKNTVYLQMNSLRAEDTAVYYCARRNYGNWYINVWGQGTLVTVSS
VL: DIVMTQSPDSLAVSLGERATINCRASESVDKFGVSFLNWYQQKPGQPPKLLIFVASSQGSGVPDRFSGSGSGTDFTLTISSLQAEDVAVYYCQQSKDIPYTFGQGTKVEIK
notes: Humanized variant of 10H2
B8: 2B6.54S (antibody, V domains shown)
VH: EVQLVQSGAEVKKPGASVKVSCKASGYTFSDYNMNWVRQAPGQGLESIGDINPKSGDTFYNQNFKDRATLTIDKSTSTAYLELSSLRSEDTAVYYCARHYYYGSSYGGFVYWGQGTLVTVSS
VL: DIQMTQSPSSLSASVGDRVTITCHASQNINVWLSWYQQKPGKNPKLLIYAASKLHTGVPSRFSGSGSGTDFTLTISSLQPEDFATYYCQQGQSYPLTFGQGTKVEIK
notes: Humanized variant of 2B6
B9: 2B6.55A (NA) (antibody, V domains shown)
VH: B8 VH with S55N, G56A
VL: B8 VL
notes: Humanized variant of 2B6

Numbering of substitutions follows the chain as printed. Values joined by “and” are separate entries in the source; they are usually repeats but may differ in a detail not shown here. Equal values may be shown once.

The record followed here is patent US20190092852A1 (Genentech, published 2019).

The first assay concerns the target T1, cyno IL-33 N-His. Description: SPR Biacore T200, 25 C. The method, then:
(§1) The binding kinetics of the anti-IL-33 antibody 10C12.38.H6.87Y.58I IgG4 and each anti-IL-33 antibody listed in Table 5 (RG1-RG20) to IL-33 were measured using surface plasmon resonance (SPR) on a BIACORE® T200 instrument (GE Healthcare). Anti-human Fc or anti-murine Fc (GE Healthcare, #BR-1008-39 or BR-1008-38, respectively) was immobilized on a CM5 sensor chip via amine-based coupling according to the manufacturer's protocol. Surfaces were used to capture monoclonal human IgG4 and monoclonal murine IgGs for kinetic studies. Antibody binding was measured to human IL-33 (R&D systems, #3625-IL-010/CF) and cyno IL-33 N-His (SEQ ID NO: 317) (Genentech, Inc.). A three-fold concentration series of cytokine with a range of 3.7 to 100 nM was used for the experiments. Sensograms for binding of IL-33 were recorded using an injection time of 4 min with a flow rate of 30 μl/minute with a running buffer of 0.01 M N-(2-Acetamido)iminodiacetic acid (ADA) pH 7.4, 0.15 M NaCl, 3 mM EDTA, and 0.05% TWEEN®-20. After injection, disassociation of the ligand from the antibody was monitored for 10 min in running buffer. The surface was regenerated in between cycles with an injection of 3 M magnesium chloride or Glycine-HCl pH 1.7. All binding experiments were performed at a temperature of 25′C and 37° C. After subtraction of a blank which contained running buffer only, sensograms observed for IL-33 binding to anti-IL-33 antibodies were analyzed using a 1:1 Langmuir binding model with software supplied by the manufacturer to calculate the kinetics and binding constants, including the dissociation constant (KD). Dissociative half-lives (t_{1/2}) were calculated from the kinetic rate constants. KD (M)=koff/kₒₙ and t_{1/2} (min)=ln(2)/(60*koff). […] In Tables 6-9, *IC indicates the result is inconclusive due to weak capture of antibody was observed, leading to poor binding data.
(In SPR one partner is held on a chip, and binding of the other changes the refractive index at the surface.)
One may read the Kd as the equilibrium constant for the complex coming apart. The koff is a measure of how fast the partners let go of each other. A high value points to a short-lived complex. Usually kon stands for the second-order rate constant of association. Molecule B1 displayed a Kd of 5.62 nM, a koff of 0.000556 s⁻¹, a kon of 99000 M⁻¹ s⁻¹ and a t1/2 of 21 min.
For B2, in that order: 3.15 nM, 0.00248 s⁻¹, 787000 M⁻¹ s⁻¹ and 5 min.
For B3 the same measures were 38 nM, 0.00625 s⁻¹, 164000 M⁻¹ s⁻¹ and 2 min.
Take B4: binding was put at a Kd of 2.83 nM, the koff turned out to be 0.00059 s⁻¹, the kon worked out at 208000 M⁻¹ s⁻¹ and the t1/2 came out at 20 min.
Consider B5, for which binding was characterised by a dissociation constant (Kd) of 5.74 nM, the koff was 0.0019 s⁻¹, the kon stood at 331000 M⁻¹ s⁻¹ and the t1/2 was 6 min.
With B6, the affinity, expressed as Kd, was 2.63 nM; the koff is 0.000557 s⁻¹; the kon was 212000 M⁻¹ s⁻¹; the t1/2 came out at 21 min.

Another assay has as its target T2, biotinylated cyno IL-33. The assay is described as follows: competitive ELISA, biotin-cyIL-33 to coated hST2-Fc. The method, then:
The ability of the anti-IL-33 antibody 10C12.38.H6.87Y.58I IgG4 and each anti-IL-33 antibody listed in Table 5 (RG1-RG20) to block either human IL-33 or cyno IL-33 binding to human ST2 receptor was tested in a competitive binding ELISA. Briefly, 1 μg/ml of recombinant human ST2-Fc chimera protein prepared in coating buffer (50 mM sodium carbonate, pH 9.6) was coated on a 384-well MAXISORP® plate (Nalgene Nunc International; Rochester, N.Y.) and incubated overnight at 4° C. On the next day, non-specific binding was blocked with PBS containing 0.5% (w/v) solution of bovine serum albumin (BSA). Fixed concentrations of biotinylated human or cyno IL-33 prepared in assay buffer (25 mM PBS, pH 7.2, 0.1% BSA, 0.05% TWEEN®-20) were mixed with an equal volume of serially-diluted anti-IL-33 antibodies or assay buffer alone and incubated for 1 h at room temperature. The final assay concentrations of biotinylated human IL-33 or cyno IL-33 were 20 pM and 45 pM, respectively, and the final assay concentration of each antibody ranged from 0-300 nM. The pre-mixed solutions were added to the ST2-Fc coated plate and incubated for 1 h at room temperature. The binding of biotinylated IL-33 to coated ST2-Fc was detected by the sequential addition of Streptavidin Poly-HRP80 (Fitzgerald; Buckinghamshire, UK) and 3,3′,5,5′-tetramethyl benzidine (TMB) Microwell Peroxidase Substrate System (KPL; Gaithersburg, Md.). The absorbance (450 nm) was recorded using a […] ASCENT® plate reader (Thermo Scientific; Rockford, Ill.). The binding activity (%) of biotin-IL-33 to ST2 in the presence of anti-IL-33 was plotted as a function of antibody concentration. The data generated were fitted to a four-parameter equation to determine IC₅₀ values for each antibody (FIGS. 25A and 25B) using Prism software (Graphpad Software; La Jolla, Calif.). The maximum blocking (%) of each antibody was calculated as the ratio of the reduction in signal measured in the presence of antibody relative to the difference between the signal with IL-33 alone and background measurements.
In general terms: ELISA stands for enzyme-linked immunosorbent assay.
On to B1, for which the “Maximum Blocking” value worked out at 10%.
Same read-out and setting: to B4 belongs 7%.
A word on the IC50: it is the concentration that inhibits the measured activity by half. Regarding B6, the IC50 was 150 nM and the “Maximum Blocking” value was 27%.

The target in the next assay is T1, cyno IL-33 N-His. The assay is described as follows: SPR Biacore T200, 37 C. The method, then:
as §1
As to B1, the Kd was 10.4 nM, the koff was 0.00213 s⁻¹, the kon is 205000 M⁻¹ s⁻¹ and the t1/2 worked out at 5 min.
Take B2: binding was put at a Kd of 6.93 nM, the koff was 0.0111 s⁻¹, the kon is 1.6e+06 M⁻¹ s⁻¹ and the t1/2 was found to be 1 min.
Regarding B3, binding was characterised by a dissociation constant (Kd) of 47.4 nM, the koff worked out at 0.0139 s⁻¹, the on-rate constant (kon) stood at 293000 M⁻¹ s⁻¹ and the t1/2 was found to be 1 min.
With B4, the Kd came to 5.38 nM, the koff is 0.00214 s⁻¹, the kon stood at 398000 M⁻¹ s⁻¹ and the t1/2 was 5 min.
With B5, the Kd was 13 nM, the koff came to 0.00757 s⁻¹, the kon was found to be 584000 M⁻¹ s⁻¹ and the t1/2 is 2 min.
For the molecule B6, the equilibrium dissociation constant (Kd) came to 5.82 nM, the koff was determined as 0.00221 s⁻¹, the kon was 380000 M⁻¹ s⁻¹ and the t1/2 was found to be 5 min.

The target of the next assay is T3, cyno IL-33 (cell-based blocking assay …). Description: cell-based or functional assay.
Regarding B7, the “Cell assay (cy) IC90” value was > 1.5 µg/mL and > 9.9 nM.

The next assay concerns the target T4, human IL-33 (cell-based blocking assay …). Description: cell-based or functional assay.
B7: the “Cell assay (hu) IC90” value was 0.344 µg/mL and 2.27 nM.

In the next assay the target is T5, human IL-33 (Genentech, huIL33.his). Description: SPR Biacore.
B8 displayed a Kd of 336 nM.
B9: binding was characterised by a dissociation constant (Kd) of 0.363 nM.
The molecule B7 displayed a Kd of 0.22 nM. This Kd is about 1.6-fold lower than that of the molecule before.
